Laboratory results: the DeepSol protein solubility set

Test: soluble on expression in E. coli; label from the status in PepcDB or PDB records

| Sequence | soluble on expression in E. coli |
| --- | --- |
| VKPPHGFQKKMKLEVVDKRNPMFIRVATVADTDDHRVKVHFDGWNNCYDYWIDADSPDIHPVGWCSKTGHPLQPPLSPLELMEASEHGGCSTPG | soluble |
| MEEFVNPCKIKVIGVGGGGSNAVNRMYEDGIEGVELYAINTDVQHLSTLKVPNKIQIGEKVTRGLGAGAKPEVGEEAALEDIDKIKEILRDTDMVFISAGLGGGTGTGAAPVIAKTAKEMGILTVAVATLPFRFEGPRKMEKALKGLEKLKESSDAYIVIHNDKIKELSNRTLTIKDAFKEVDSVLSKAVRGITSIVVTPAVINVDFADVRTTLEEGGLSIIGMGEGRGDEKADIAVEKAVTSPLLEGNTIEGARRLLVTIWTSEDIPYDIVDEVMERIHSKVHPEAEIIFGAVLEPQEQDFIRVAIVATDFPEEKFQVGEKEVKFKVIKKLHHHHHH | soluble |
| MSLHRLNLNGYEPDRHHEAAVAFCIHAGTDELTSPVHQHRKGQLILALHGAITCTVENALWMVPPQYAVWIPGGVKHSNQVTANAELCFLFIEPSAVTMPTTCCTLKISPLCRELILTLANRTTTQRAEPMTRRLIQVLFDELPQQPQQQLHLPVSSHPKIRTMVEMMAKEPVEWGSLGQWAGFFAMSERNLARLIVKETGLSFRQWRQQLQLIMALQGLVKGDTVQKVAHTLGYDSTTAFITMFKKGLGQTPGRYIAGLTTVSPQSAKPDPREGHHHHHH | soluble |
| SNFLEIDIFNPQTVGVGRARFTTYEVRMRTNLPIFKLKESCVRRRYSDFEWLKNELERDSKIVVPPLPGKALKRQLPFRGDEGIFEESFIEERRQGLEQFINKIAGHPLAQNERCLHMFLQEEAIDRNYVPGK | soluble |
| MAEPTAKAAPYENLMVPSPSMGRDIPVAFLAGGPHAVYLLDAFNAGPDVSNWVTAGNAMNTLAGKGISVVAPAGGAYSMYTNWEQDGSKQWDTFLSAELPDWLAANRGLAPGGHAAVGAAQGGYGAMALAAFHPDRFGFAGSMSGFLYPSNTTTNGAIAAGMQQFGGVDTNGMWGAPQLGRWKWHDPWVHASLLAQNNTRVWVWSPTNPGASDPAAMIGQAAEAMGNSRMFYNQYRSVGGHNGHFDFPASGDNGWGSWAPQLGAMSGDIVGAIRHHHHHH | soluble |
| GPLGSLPEELVHAGWEKCWSRRENRPYYFNRFTNQSLWEMPVLGQHDVISDP | soluble |
| ITRDEVGELARVMNEMASQIERNLARISAEKNRLDTILRGMGEGLMVSDAGGTVTLVNPAFLELFGLTQSVEGRQIIEIARFPELHETFRAVVSSRSEHVEEMTLPLGDEKQVLTHWVPLMEE | not soluble |
| MGPNHPCGYLPGRDARFTYVSPAYPLSPQSYRGLLEEGFRRSGNWVYRPCCIGCSACLPVRLPVHDFRLTRSHRRVIKRNADIDIRVSVARFDERQFQLYVRYLAARHPTDTPVSRDDYWSFVSSSWAQTRFVEFRSYSELIGVAVVDHVPGALSAVYTFFDPDAAERSPGSLAILWQILEARRLGREWLYLGYWIGGCRKMEYKARYRPLEALIANRWRRFQVDEPLTSSVLLEHHHHHH | soluble |
| AHHHHHHGSGLFDKLKKAEVQKKVPSSLKSRIKEEPSEVELVPVEEEVLAKELVKPKVVYIKKIVISTHADLKRVSDELKSGNIVIVELTPLEQKPELLKKIAEQLMTTASIIGGDYAKICGSPLKVILTPPEIKIAKE | not soluble |
| AGTHDYSTALKDSIIFFDANKCGPQAGENNVFDWRGACHTTDGSDVGVDLTGGYHDAGDHVKFGLPQGYSAAILGWSLYEFKESFDATGNTTKMLQQLKYFTDYFLKSHPNSTTFYYQVGEGNADHTYWGAPEEQTGQRPSLYKADPSSPASDILSETSAALTLMYLNYKNIDSAYATKCLNAAKELYAMGKANQGVGNGQSFYQATSFGDDLAWAATWLYTATNDSTYITDAEQFITLGNTMNENKMQDKWTMCWDDMYVPAALRLAQITGKQIYKDAIEFNFNYWKTQVTTTPGGLKWLSNWGVLRYAAAESMVMLVYCKQNPDQSLLDLAKKQVDYILGDNPANMSYIIGYGSNWCIHPHHRAANGYTYANGDNAKPAKHLLTGALVGGPDQNDKFLDDANQYQYTEVALDYNAGLVGVLAGAIKFFGGTIVNPPVKK | soluble |
| MAHHHHHHMADNITNDKRDIFKIHKWSAVAAWSWDISVDNCAICRNHIMDLCIECQAKTTDHENDKDKKIDKEGCTVAWGVCNHAFHLHCISRWIKARQVCPLDNTTWEFQKATD | soluble |
| MTLISRIKQLAQSKQLTLAQLERNVGISNGQIRRWDTSSPKVENLLKIADYFSVSLDYLMGRTQQTEINHQAPMKSTQKELHIHITTEELTEEEITQLEEEANRFLRFRKFEMTNS | not soluble |
| MGSDKIHHHHHHMASPINESRIGYLYEAVRCGTVRAAADYLDVAPSAVSRQIALLEEELAIALVERNKRGVRPTEAGALLIEYFRQQRSHQGDLIAKLQEIRGLRRGTIAVVMGEGFASTMVSGPIKQYCEAYPEISITLDLCSTNEVMRRVSEDEAEIGLVFNPASDARIVSRVGSRQPMHAIVSPAFPLVGKVQSVTLRDMLPYPLALTHPEHGTRRLVDAAMLLEKVRLTPAITTNSATILKLFAKSNLGFTLLTPISIAAELAAGELVAIPVENRLLQSPEAHLVTRAGRQLSPAANRLLQRLTAQINQYAQYGSAS | not soluble |
| MAHHHHHHMGENRRPSRWSSERYTNLFVPNYIPPELMLYDEGQFLRAFLLRVLSIDLNRLIETKRCGDYFINIPLVPEYNSEGQRTNTPDELVAEKRLKVMDELTNLLRQHSELELNAKTQKEVVRKRYFTQEEMDNGAYGAILGARGMVHQELERLTKCKIVLAGRGITNALKDTSANAARVALEDPHARITAPNEQALQHAMERIEWILSDDPEALEFRENNRKRMAQIEGRYDPRTWVSLAERNAKNPRRMGEKREREEEAKEELDADLQEFLDEL | soluble |
| MFVMEKVLFPFSAVVDEDDLKMALILNAIDQRIGGVLIMGPKGVAKSTIARSLTDLLPDIDVVKDCPFKCDPHDPSSMCDECIKKYRDGTIVSEKRKIPFVNMPVTATLDRVVGSLDIKRAIDEGLRALQPGLLAEANRGIIYIDEVNLLDDSVVDSILDSAASGINVVEREGVSVTHPARFILIGTMNPEEGDLRPQLKDRFGLSVTAVQPSDPEELIEISNRVEEFDRDPEAFRRKYEKIQNEIRNRIMRARSLLPSVVIDEDLKRFIAEVVIKLQAGNRAMITAVKASKAIAAFNGRDRVNIDDVKEALNLVLKHRVKDSAMIRGTIEKESRDLSTRSVEAGPHSGYEEGSESSGRRDMKAGNGKDEEKDVEVSAAFDEESNRSGRTGNADIFRILDQNRPGDHFDYRASLVNMIMNGRRRMKYEDLAFVSSRSRASIPVILAVDASRSMETMHRIALARGIARSFLHSAYRMRVKLSYITFYGTESHLMVEPTRNLDLIDREISRTVPQGKTPIPAALKMMYDISSRYRQRTVSIMITDGRANVPLGNDVTHDVREWSAKLGTRSDLFLISSTMGSERFMPSYNEDICRYSGGQLIEMDGNGHIALYSGYRRY | soluble |
| MGSDKIHHHHHHMYIQIVFAVKGRNSLIHPSWENELHKYMTGFIQNNGQKLLAINGMPDHIHILIGMKPSCCLSDLIRELKKSSSSFIKDKKLSPYAFQWQEGYGAFSYSHSNLNQVIAYIMNQKEHHKKRTFKEEYLEFIQKFELEYNPKNLFEWMD | not soluble |
| MEEGDIVGILKVFFVRTGAIGKRLGFKAGDIRIREEIVQANLTWKEDGEIRRERIKTRFFGYFRSHVAEWEPVIAAESVDVERGEVARIKIKEITLPEYTVITPLFIRRHALGSLIDVVQQGKRRKVEEKKRIGEAIFLPARSGRVEKGDLLGVINVYYIATENFSVGRREKDEVLAKVVDERGRKEFRIKPFAYRRKTIARWEPIVAAENRKVRKGEVEEIAIEPISLEENTIVYPLYVMRNAFGSVVDVVEERPRRVEERREIIKAVFLPVFDGEIRKGQLLGVMNVYSIEVQPYEVIWRWLEEWQGEFRRLFAEVVGLEHHHHHH | soluble |
| MDFYYPNLNNDMWRIVGLLFFGDKDHFLNDTRKAFCREQIIDFLNEKGIALFDTASSIRRLQDNASDKFLEVVQPTDIAALLRQLPECRAIVTTGQKATDTLRAQLEVEEPKVGDYAEFVFEGRAMRLYRMPSSSRAYPLALDKKAAAYRIMYQDLQMVILEHHHHHH | soluble |
